The chains are these.
B1: GB1-SF1 Pro CD (residues 539-639) (domain or fragment, UniProt Q15637 539-639, looked up)
chain: GSIPPWQQQQAAAAASPGAPQMQGNPTMVPLPPGVQPPLPPGAPPPPPPPPPGSAGMMYAPPPPPPPPMDPSNFVTMMGMGVAGMPPFGMPPAPPPPPPQN
notes: SF1 (splicing factor 1) residues 539-639; pET24 vector with 6xHis, GB1 and TEV site as N-terminal cassette, not cleaved; source: E. coli BL21(DE3), purified (Ni-NTA, SEC); not shown: GB1, N-terminal, kept
B2: GB1-SF3A1 Middle Pro (residues 364-413) (domain or fragment, UniProt Q15459 364-413, looked up)
chain: EGQKVPPPPETPMPPPLPPTPDQVIVRKDYDPKASKPLPPAPAPDEYLVS
notes: SF3A1 residues 364-413, proline-rich region with a PPLP motif; pET24 vector with 6xHis, GB1 and TEV site as N-terminal cassette, not cleaved; also called SF3A1 region (364-413); source: E. coli BL21(DE3), purified (Ni-NTA, SEC); not shown: GB1, N-terminal, kept
B3: GB1-SF1 Pro D (residues 594-639) (domain or fragment, UniProt Q15637 594-639, looked up)
chain: GMMYAPPPPPPPPMDPSNFVTMMGMGVAGMPPFGMPPAPPPPPPQN
notes: SF1 (splicing factor 1) residues 594-639, the very C-terminal region; pET24 vector with 6xHis, GB1 and TEV site as N-terminal cassette, not cleaved; source: E. coli BL21(DE3), purified (Ni-NTA, SEC); not shown: GB1, N-terminal, kept
B4: GB1-SF1 Pro C (residues 539-594) (domain or fragment, UniProt Q15637 539-594, looked up)
chain: GSIPPWQQQQAAAAASPGAPQMQGNPTMVPLPPGVQPPLPPGAPPPPPPPPPGSAG
notes: SF1 (splicing factor 1) residues 539-594; pET24 vector with 6xHis, GB1 and TEV site as N-terminal cassette, not cleaved; source: E. coli BL21(DE3), purified (Ni-NTA, SEC); not shown: GB1, N-terminal, kept
B5: GB1-SF3A1 C-ter Pro (residues 552-683) (domain or fragment, UniProt Q15459 552-683, looked up)
chain: EIPQQPPPPSSATNIPSSAPPITSVPRPPTMPPPVRTTVVSAVPVMPRPPMASVVRLPPGSVIAPMPPIIHAPRINVVPMPPSAPPIMAPRPPPMIVPTAFVPAPPVAPVPAPAPMPPVHPPPPMEDEPTSK
notes: pET24 vector with 6xHis, GB1 and TEV site as N-terminal cassette, not cleaved; source: E. coli BL21(DE3), purified (Ni-NTA, SEC); not shown: GB1, N-terminal, kept
B6: GB1-SF1 Pro BC (residues 468-594) (domain or fragment, UniProt Q15637 468-594, looked up)
chain: GMMPPPPMGMMPPPPPPPSGQPPPPPSGPLPPWQQQQQQPPPPPPPSSSMASSTPLPWQQNTTTTTTSAGTGSIPPWQQQQAAAAASPGAPQMQGNPTMVPLPPGVQPPLPPGAPPPPPPPPPGSAG
notes: SF1 (splicing factor 1) residues 468-594; pET24 vector with 6xHis, GB1 and TEV site as N-terminal cassette, not cleaved; source: E. coli BL21(DE3), purified (Ni-NTA, SEC); not shown: GB1, N-terminal, kept
B7: GB1-SF1 Pro BCD (residues 468-639) (domain or fragment, UniProt Q15637 468-639, looked up)
chain: GMMPPPPMGMMPPPPPPPSGQPPPPPSGPLPPWQQQQQQPPPPPPPSSSMASSTPLPWQQNTTTTTTSAGTGSIPPWQQQQAAAAASPGAPQMQGNPTMVPLPPGVQPPLPPGAPPPPPPPPPGSAGMMYAPPPPPPPPMDPSNFVTMMGMGVAGMPPFGMPPAPPPPPPQN
notes: SF1 (splicing factor 1) residues 468-639; pET24 vector with 6xHis, GB1 and TEV site as N-terminal cassette, not cleaved; source: E. coli BL21(DE3), purified (Ni-NTA, SEC); not shown: GB1, N-terminal, kept
B8: GB1-SF1 Pro ABCD (residues 410-639) (domain or fragment, UniProt Q15637 410-639, looked up)
chain: GHPMQHNPNGPPPPWMQPPPPPMNQGPHPPGHHGPPPMDQYLGSTPVGSGVYRLHQGKGMMPPPPMGMMPPPPPPPSGQPPPPPSGPLPPWQQQQQQPPPPPPPSSSMASSTPLPWQQNTTTTTTSAGTGSIPPWQQQQAAAAASPGAPQMQGNPTMVPLPPGVQPPLPPGAPPPPPPPPPGSAGMMYAPPPPPPPPMDPSNFVTMMGMGVAGMPPFGMPPAPPPPPPQN
notes: SF1 (splicing factor 1) residues 410-639, the complete proline-rich C-terminal region; pET24 vector with 6xHis, GB1 and TEV site as N-terminal cassette, not cleaved; also called complete C-terminal region of SF1; source: E. coli BL21(DE3), purified (Ni-NTA, SEC); not shown: GB1, N-terminal, kept
B9: GB1-SF1 Pro A (residues 410-468) (domain or fragment, UniProt Q15637 410-468, looked up)
chain: GHPMQHNPNGPPPPWMQPPPPPMNQGPHPPGHHGPPPMDQYLGSTPVGSGVYRLHQGKG
notes: SF1 (splicing factor 1) residues 410-468 of the proline-rich C-terminal region; pET24 vector with 6xHis, GB1 and TEV site as N-terminal cassette, not cleaved; source: E. coli BL21(DE3), purified (Ni-NTA, SEC); not shown: GB1, N-terminal, kept
B10: GB1-SF1 Pro B (residues 468-539) (domain or fragment, UniProt Q15637 468-539, looked up)
chain: GMMPPPPMGMMPPPPPPPSGQPPPPPSGPLPPWQQQQQQPPPPPPPSSSMASSTPLPWQQNTTTTTTSAGTG
notes: SF1 (splicing factor 1) residues 468-539 of the proline-rich C-terminal region; pET24 vector with 6xHis, GB1 and TEV site as N-terminal cassette, not cleaved; source: E. coli BL21(DE3), purified (Ni-NTA, SEC); not shown: GB1, N-terminal, kept
B11: GB1-SF1 Pro A (residues 410-468) (domain or fragment, UniProt Q15637 410-468, looked up)
chain: GHPMQHNPNGPPPPWMQPPPPPMNQGPHPPGHHGPPPMDQYLGSTPVGSGVYRLHQGKG
notes: splicing factor 1 (SF1), residues 410-468 of the proline-rich C-terminal region; His6-GB1-TEV site cassette of the pET24 vector, not cleaved; source: E. coli BL21(DE3), purified (Ni-NTA, SEC); not shown: GB1, N-terminal, kept

The text below walks through data of PMC11079029, “Intramolecular autoinhibition regulates the selectivity of PRPF40A tandem WW domains for proline-rich motifs” (Nature Communications, 2024).

Where “and” joins values, the source holds several entries; their conditions need not be identical. Equal values may be shown once.

The first assay has as its target T1, PRPF40A WW12 (tandem WW domains, residues 141-236) (human, UniProt O75400 141-236).
T1 construct: pETM11 vector (NcoI/KpnI); also called PRPF40A WW tandem; isolated WW domains; source: E. coli BL21(DE3), purified (Ni-NTA, TEV cleavage, reverse Ni-NTA, SEC); not shown: His6, N-terminal, cleaved
The assay is described as follows: ITC; MicroCal PEAQ-ITC, 25 °C, 20 mM sodium phosphate pH 6.5, 100 mM NaCl; GB1-tagged SF1/SF3A1 constructs in the syringe, WW12 in the cell (N sites <1: more than one WW tandem on one construct); one-site model; apparent. To be noted: both partners purified. Background: In ITC the heat of successive injections is recorded.
In the case of B1, the stoichiometry N – broadly, a count of units in the complex or per binding partner – is 0.42 and 0.38 and 0.36 and 0.39. Consider B2, for which the Kd was 8.1 µM and 9.6 µM and 8.86 µM; the “stoichiometry N” value was 0.7 and 0.42 and 0.56. Consider B3, for which the Kd is 10.3 µM and 9.94 µM and 10.1 µM; the “stoichiometry N” value is 0.84 and 0.9 and 0.87. For B4, the Kd was 2.1 µM and 1.94 µM and 2.02 µM; the “stoichiometry N” value was 0.87 and 0.88. On to B5, for which the “stoichiometry N” value is 0.25 and 0.28 and 0.27.

Take B6: the “stoichiometry N” value was 0.5 and 0.6 and 0.53. Turning to B7, the “stoichiometry N” value was 0.3 and 0.26 and 0.28.

B8: the “stoichiometry N” value is 0.33 and 0.23 and 0.28.

As to B9, the Kd is 24.8 µM and 25.4 µM and 25.1 µM; the “stoichiometry N” value was 0.97 and 1 and 0.99.

As to B10, the Kd is 15.7 µM and 16.1 µM and 20.6 µM; the “stoichiometry N” value was 1.3 and 1.15.

The target of the next assay is T2, PRPF40A WW12 (tandem WW domains, residues 141-236) (human, UniProt O75400 141-236).
T2 construct: A few vector residues probably remain at the N-terminus after TEV cleavage (pETM11, NcoI site); 15N-labelled in the NMR experiments; also called PRPF40A WW tandem; WW12 wt; source: E. coli BL21(DE3), purified (Ni-NTA, TEV digestion, reverse Ni-NTA, SEC); not shown: His6, N-terminal, cleaved
As to the kind of experiment: ITC; GB1-peptide or GB1-SF1 construct in the cell, PRPF40A WW12 in the syringe (as shown in Supplementary Figures 7 and 16A); 25 °C, 20 mM sodium phosphate pH 6.5, 100 mM NaCl; one-site binding model; at least duplicates; affinities apparent. To be noted: both partners purified.
TMVPLPPGVQPPLPPG [GB1-SF1 16-mer peptide 565-580]: the Kd is 30.4 ± 6.7 µM.

Turning to PPPPPPPPPPPPPPPPPPPPPPPPPPPPP [GB1-polyproline peptide P29], the Kd was 9.15 ± 1.85 µM. PPPPPPPPPPPPP [GB1-polyproline peptide P13]: the Kd came out at 8.54 ± 1.46 µM. The same measure, in the same setting: the value for PPPPPPPPPPPPPPPPPPPPPPPPP [GB1-polyproline peptide P25] was 10.8 ± 1.8 µM; that for B11 was 25.1 ± 6.5 µM.
